Assay: soluble fraction after stress (log2 fold change); higher = more stays soluble; pooled small domains, quantitative proteomics
Conditions: stress: 75 degC
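Also: 20 min heating vs room temperature control held 20 min.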

| Sequence | soluble fraction (log2) |
| --- | --- |
| HMATRLPFGFAKRFGVLVEGKDDQITVYHKDGLQTAVILEIQRYLARPFRFEAVTPEEFERRLGLAYQS | -2.44 |
| HMATSNDTQITGSLALRFDGSGDTFTVNVNGDDKLEINTEGTVIYKPLTTAPTYVSGGLFFSSSGDFYVG | 0.00147 |
| HMATTIDFTVGDDVQVMNGPLESFTGKVTELNEASQKVKVDVVMFGRVTNVELDFVQVKKIT | -1.04 |
| HMATTIEAPMPGKILDVKVNPGQAVSYGQVVLTMEAMKMETEIVAPADGTVASVLVKSGDMVETGAALVSL | -0.344 |
| HMATTMSADWRPSEDAVGILVNAEINARFIEDAIPEFVLYWRERGAVHGAWNSKFIEHIRRQWAKFSAS | -2.84 |
| HMATTPEETILEYINKNNRISKQEIADLMGITRDGVSYHIKKLRKNGLLEWIGSPSNGHWEIIE | 0.38 |
| HMATVHPIRIQGGMTTQQGGKTVWLWVSDEGRLMTEDEIAGESGGTVSSRMVRGVRVLTGTGVIYG | -1.96 |
| HMATVIDVATTLGRPITDPDEQRQVLNWIGKTERIISARLGDLAALDRQILADVISEVVARRARN | -0.495 |
| HMATVNIGNLTFTHKGDYASGTTYAKNDVVYYSTNGNAYIAKQATQGNAPTSTAHWDVFAAGSGG | 0.245 |
| HMAVDAASSTIGKNVEVSVANEKGDYENFNGKVKSASIKDGVVYLELELKDTGEIKEVPYSSLTKIT | 0.0437 |
| HMAVDPSVLTRRERQALAWIARGLSNKEVARGLNLAESTVKVHVQSILRKLNLTSRVQAAVYAIEHGIDK | -3.08 |
| HMAVFRVGDKVKSMEGMIGEVRGINGRLIQVATPYGLRDYYPHQITKVENPLAAAPAPLNEEA | 0.767 |
| HMAVGVFQKEDGYWGYRFSIIVDGKTIARRKFTDENGSKLRTKSEAVKARAAAMVAARMERVS | -3.46 |
| HMAVIILDEPTLGLDPAVRISLWQAIQSARDSTMSAFLITTHYIKEVADYLSAVKILDHGREVASGNPSAL | -0.313 |
| HMAVKLELYRVFKEVAETGNISAAAKNLYISQSAVSQSIKQLETALQARLFARSPRGVTLTGEGQMLYQYV | -1.5 |
| HMAVKNAQIDVQQFFYSKSGEVDFGRKIKAIQSHFTPERLQSFTAAVPPSQWVSQLQVMWDSL | -2.12 |
| HMAVLGIQPVFHRSTGQTVYKSSVNTAKGRVYLGLFPTLTEALEIKLKYMQEHGHTKGITNLTNKLKEL | -1.05 |
| HMAVPFTIDVSQNGRYFIEEDNQVVEVSIGFLEDRFLRIIKSNPDIEVIIRGDAKASYESIAELLAVLQ | -0.904 |
| HMAVQPMDQVKAWLAEDNPADIKLLVPVLQKLDLLDYEQVRGEVADRAGVRKSLLDEAVKGN | 0.0888 |
| HMAVRTELLALPAGWHGDASRLSTALAALQGVREAVVIASEGVAYLKVHGHDWDRDGARELLQN | -1.12 |
| HMAVSGRGSIIGGVATVLDDFADSGKVWLEGEAWQARSSVPLKQDQEVVVRAMDGLVLVVEPVA | -0.442 |
| HMAVSNWQKLVSSIQTQLKILALYHGPEDGIYGPNTRSAIMLYEENIGLPVTGEPSRELLAHMLDQTD | -1.64 |
| HMAVTNLTAKQISDTRWRVTWDSTLASPTYYVYRDGLLMMQTRQELYEFDAARGEQVQIDVLDDMAAAPAE | -0.853 |
| HMAWAVRAGEGVLIRAGQPGFSATTRGTALSNGAIGEGVRVRNLGSGKEIQAWVVDKGEVETR | 0.00511 |
| HMAWIAVATKEDYSEYEWKELSPTTDWSTQTFDLGDLAGKTIYAVKMFFDHDTDVKDYKFNLGQLSITSN | -0.189 |
| HMAYRLDVRNQTKGTYLVIQKKYWDKEKKQSRTKHHMSLGYVHDLQKLYSDPITHYKEVINQMNAEEKG | -2.09 |
| HMAYSEEDRRRVREELLTTALKLMSTQGIQHTTVEQVYRSVGISRSFFYAFFPTKEDLIVEAL | 0.0495 |
| HMDAAANTLRILKALSESPMSADRLAELLMEEGSGRNPRTIRRYIRALREAGFGVEHREGRYVL | -0.387 |

| Sequence | soluble fraction (log2) |
| --- | --- |
| HMDAAEVEATARAMLRRSALNLLAQREQTAFELKQKLSRRFPEQAALLDEVIERLQEQGLQDDTR | -0.0318 |
| HMDAEEISILLEKAVLQLPEKQKMIFQLKYFEDLSYKDIQIITGGSIGGLKANYHHAVTKIEKLLS | 0.123 |
| HMDAEETLGARLRRLRQARGLSLAGLAQAAGLSKPSIWAWENGTTAPRRTSLLALARALDVPEQQLTGV | -0.715 |
| HMDAEKHIVTPEAGLRLDRALTDALPNLSRSRVKQLINEGLVTTENKTITAPSYRVKYGDSFEISIPPPT | -0.16 |
| HMDAIIVPSVLKMKPFEAEEKLSALGLRMKINDTVYIDNMKPGVIVEQSPTAEEDVKTDRVIYVIVNA | -0.327 |
| HMDAKQLQSLKNNNEQLAGFIVRLTNFYEGLSPDIDAELSKLRSHLSGKVDYTLATVSINKINQLFMLEP | -2.97 |
| HMDALIWYVSRGQQKFGPFNYFGVLKALQDKSVFEFDYVWKEGTENWVRLAEHELFSQEKVRELLA | -0.554 |
| HMDAMLGEALRLIRVYHDLKQKQAAERLEVSTSYLSEIERGLKTPTLDIIQRYATVFDMPVSSIMFFSENL | -3.1 |
| HMDAMLSEQLREKRGELLIEVDAIAGNALRWATLSAEQQDAWAVYRQALLDVPQQAGFPNDVVWPINPN | -0.42 |
| HMDAPKPDIGMSTDQIRSSLGQPGSQTRLETGGGRIYELWIYLYPDGKELQIYFDNAKVVKMEALS | -1.19 |
| HMDAPLIIAETRVDVPDATVSDAVMMLDLRNTNALLFKNSGSGVLNMVYRRGDGTIGWGEPQ | -0.011 |
| HMDASKVKIEDLGLSTRTENALVAASIRTAGGLARKSEMDLLSTDGLGEKGITEIKKALSDLGLELK | 0.4 |
| HMDAVSTMIENLRVKTGKSLADWVGLAKGSGADKHGAMVGWLKSEHGLTHGYANLIAHETFRSAA | -0.129 |
| HMDAVTPVLSRIRDARFKRMVLPGDEIEISVTLIDTIGKFFNLSGQIRNKDKISLTVNFALALV | 0.195 |
| HMDDADPYEILGVERDAEDAEIKRAYHDLIRENHPDRLMAEGLPQEMIDVANEKVAFINDAYDRIEKLRGM | -0.193 |
| HMDDENKIEVMINEEKVQLTGKDKYVFVDIFNYIDMDLTRIHGNLVLKLNGENASHNSLLKSGDKIEARWE | -0.746 |
| HMDDERDRLVQQAMEGLSPALREILLLAYFQRMPYNQIAESLRIPLGTVKSRLHAAVAAFAKRWQELNRS | -0.77 |
| HMDDFNLSPREKDVLGHLVKGNSYKMIADELQIGYDTVHSHIKKIYKKLHVNSMSEAVAKALKNKL | 0.332 |
| HMDDGARQLVDQLNRLIANPAVSARIIHGYLILEGRVESEWEKTRTLLLAQVAGLPVIDLITVS | -2.35 |
| HMDDGLTRLTPRENEVLELMAQGRSNTAIAERLVLSYGAVEKNVSSIFTKLDLPLDAGDHRRVLAVLRRLN | -0.668 |
| HMDDGNHTEYIVLEKAKFYDEAGEYEEGRDLVLSFDKYQDNWKLVYTLGVFNKKLNNLEEARKYYKQALE | -0.0263 |
| HMDDHKQHLIDFYHSRKRMPTYTEMMALFGYKSKNAVARLVEKMIDAGIVTKDKLGKLLPTTLFDSVPL | -0.00288 |
| HMDDHLRLSDNERISAMSALATHFTEGRLDTSEFDERTLAASQAKSRGDLRPLFDDLPGQLPAALSP | 0.0298 |
| HMDDKLKKLEEVFEMQEGTLTPDMRLDELEEWDSMTRLSLIVMMEDDYGKKVKRSEVMNYTTVQDIVDSME | -0.0532 |
| HMDDLSPEENKVIGAQVREELARRRLSRQHLADKAKISLSTLEKALTGTRPFTLASVVRIEEALQLQLRK | -1.35 |
| HMDDPEISQEQRQQLFRTAKEHFGASGNDVLKEILADHGRDSTVKMPVSVFAEIMGDLLKRALD | 0.612 |
| HMDDPQAELLARAVRRVALAAAERTRRNEYGGVYLGLFRQFGISSYRRTPPARLHEALEWLERWRGDLM | -0.134 |

Source: the domain aggregation screens of Martell et al. (2025)
